Test results as given in article PMC3376133, “Glutamine versus Ammonia Utilization in the NAD Synthetase Family” (PLoS ONE, 2012).

T1: tt_NADS S-subunit (Thermus thermophilus, UniProt Q72HE9)
T1 construct: gene TT_C1538; S-subunit expressed alone in E. coli BL21/DE3, N-terminal His6-tag
T1 sequence (Q72HE9 1-281): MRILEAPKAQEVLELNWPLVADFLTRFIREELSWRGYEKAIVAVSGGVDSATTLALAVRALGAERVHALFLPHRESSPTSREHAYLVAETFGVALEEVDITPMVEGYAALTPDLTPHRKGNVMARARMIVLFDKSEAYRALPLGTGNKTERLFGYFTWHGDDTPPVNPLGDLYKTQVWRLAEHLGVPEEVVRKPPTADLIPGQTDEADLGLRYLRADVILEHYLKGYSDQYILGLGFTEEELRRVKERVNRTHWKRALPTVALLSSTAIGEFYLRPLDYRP

B1: mj_NADS (Methanocaldococcus jannaschii DSM 2661) (protein)
chain: MLWGESMEEIVNKITKFIREKVEEANANGVVVGLSGGIDSSVTAYLCVKALGKDKVLGLIMPEKNTNPKDVEHAKMVAENLGIKYIISDITDILKAFGAGGYVPTREFDKIADGNLKARIRMCILYYFANKYNLLVAGTSNKSEIYVGYGTKHGDIACDIRPIGNLFKTEVKKLAKYIGVPKEIIEKPPSAGLWEGQTDEEELDIKYETLDTILKLYEKGKTPEEIHKETNIPLETINYVFDLIKKNEHKRTLPPTPEI
notes: full-length single-domain NADS, N-terminal His6-tag, pET-derived vector, E. coli BL21/DE3

Experiments:
tt_NADS S-subunit = molecular target: T1, tt_NADS S-subunit; assay: coupled alcohol dehydrogenase assay, NADH at […] nm; assay type: biochemical; conditions: ammonia as amide donor, ATP; constants possibly in Figure 3C
[1] = substrate: Nc1ncnc2c1ncn2[C@@H]1O[C@H](COP(=O)(O)OP(=O)([O-])OC[C@H]2O[C@@H]([n+]3cccc(C(=O)O)c3)[C@H](O)[C@@H]2O)[C@@H](O)[C@H]1O; assay: steady-state kinetics of NAD synthetase activity; assay type: biochemical, Methanocaldococcus jannaschii; conditions: ammonia 4 mM, saturating ATP (2 mM), 10 mM MgCl2, pH 7.5

Molecule	coupled alcohol dehydrogenase assay, NADH at 340 nm (tt_NADS S-subunit)	Km [1]	kcat [1]
Nc1ncnc2c1ncn2[C@@H]1O[C@H](COP(=O)(O)OP(=O)([O-])OC[C@H]2O[C@@H]([n+]3cccc(C(=O)O)c3)[C@H](O)[C@@H]2O)[C@@H](O)[C@H]1O [NaAD]	the S-subunit alone ... had a comparable NADS activity only with ammonia		
B1		130 ± 20 µM	0.20 ± 0.01 s⁻¹
